What was measured:
[1] = target: dCas9 (catalytically deactivated Cas9) (UniProt Q99ZW2); test: SPR; conditions: SPR: 2 mM MgCl2, 37 °C, 30 min, 2 µL DNA (up to 1000 ng/µL), dRNP on graphdiyne chip, rinse 2 mM MgCl2, bead assay: 2 mM MgCl2, 37 °C, 1 h, pH not stated
[2] = target: dCas9 (catalytically deactivated Cas9) (UniProt Q99ZW2); test: magnetic bead pull-down, qPCR; conditions: 2 mM Mg2+; SPR: 2 mM MgCl2, 37 °C, 30 min, 2 µL DNA (up to 1000 ng/µL), dRNP on graphdiyne chip, rinse 2 mM MgCl2; bead assay: 2 mM MgCl2, 37 °C, 1 h; pH not stated

Sequence of UniProt Q99ZW2 (Q99ZW2 whole entry): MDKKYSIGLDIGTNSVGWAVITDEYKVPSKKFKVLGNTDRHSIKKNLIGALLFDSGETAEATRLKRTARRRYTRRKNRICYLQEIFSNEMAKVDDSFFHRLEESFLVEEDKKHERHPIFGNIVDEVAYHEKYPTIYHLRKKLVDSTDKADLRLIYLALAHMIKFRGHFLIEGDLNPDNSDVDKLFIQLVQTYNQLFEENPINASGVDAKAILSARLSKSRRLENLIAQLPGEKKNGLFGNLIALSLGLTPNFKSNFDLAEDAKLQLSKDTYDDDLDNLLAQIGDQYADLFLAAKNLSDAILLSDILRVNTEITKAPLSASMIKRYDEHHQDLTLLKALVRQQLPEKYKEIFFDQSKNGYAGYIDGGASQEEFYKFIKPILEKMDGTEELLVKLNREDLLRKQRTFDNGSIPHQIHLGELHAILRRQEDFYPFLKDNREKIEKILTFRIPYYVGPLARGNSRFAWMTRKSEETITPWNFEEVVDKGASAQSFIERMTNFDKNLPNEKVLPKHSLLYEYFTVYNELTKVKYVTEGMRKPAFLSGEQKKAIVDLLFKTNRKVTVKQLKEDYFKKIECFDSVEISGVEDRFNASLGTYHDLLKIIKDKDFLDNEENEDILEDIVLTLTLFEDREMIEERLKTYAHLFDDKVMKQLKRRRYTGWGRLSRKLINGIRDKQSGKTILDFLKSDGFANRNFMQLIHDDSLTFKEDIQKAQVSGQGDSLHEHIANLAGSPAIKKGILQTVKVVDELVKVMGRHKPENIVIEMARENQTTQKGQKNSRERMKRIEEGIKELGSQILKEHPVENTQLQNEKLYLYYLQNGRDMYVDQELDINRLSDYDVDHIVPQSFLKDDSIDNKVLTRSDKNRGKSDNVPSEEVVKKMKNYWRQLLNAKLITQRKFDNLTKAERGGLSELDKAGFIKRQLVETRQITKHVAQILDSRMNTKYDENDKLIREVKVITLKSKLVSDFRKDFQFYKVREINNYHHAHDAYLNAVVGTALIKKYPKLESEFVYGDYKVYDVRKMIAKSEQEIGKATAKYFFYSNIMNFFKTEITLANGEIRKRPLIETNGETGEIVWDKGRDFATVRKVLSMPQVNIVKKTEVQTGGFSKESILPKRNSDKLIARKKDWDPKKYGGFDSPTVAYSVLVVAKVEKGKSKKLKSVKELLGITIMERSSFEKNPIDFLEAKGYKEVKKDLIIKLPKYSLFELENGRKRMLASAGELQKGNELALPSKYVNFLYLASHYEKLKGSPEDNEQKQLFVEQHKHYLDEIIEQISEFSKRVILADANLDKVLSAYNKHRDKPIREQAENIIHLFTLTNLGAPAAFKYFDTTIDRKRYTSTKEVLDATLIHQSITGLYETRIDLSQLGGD

Row | Sequence | Kd ([1]; 2 mM Mg2+, ka 0.11e5 M-1s-1, kd 6.5e-3 s-1) [µM] | binding signal [2] [% captured] | Kd [1]
1 | GGGGUUCGCCUUCCGCCGCGUGGGUUUUAGAGCUAGAAAUAGCAAGUUAAAAUAAGGCUAGU [sgRNA-GFP-Pos3 + pCDH-GFP-5k amplicon] | 0.591 | – | –
2 | GGGUGCCUGCAGCUCCACACUAGGUUUUAGAGCUAGAAAUAGCAAGUUAAAAUAAGGCUAGU [sgRNA-Mut3 + pUC19-Mut3-0.3k amplicon] | – | 99.8 | –
3 | GGGUGCCUGCAGCUCCACACUAGGUUUUAGAGCUAGAAAUAGCAAGUUAAAAUAAGGCUAGU [sgRNA-Mut3 + pUC19-Mut3-0.8k amplicon] | – | 99.8 | 7.61 10^-8 M
4 | GGGUGCCUGCAGGUCGCACCUAGGUUUUAGAGCUAGAAAUAGCAAGUUAAAAUAAGGCUAGU [sgRNA-Mut1 + pUC19-Mut1-0.3k amplicon] | – | 89.2 | –
5 | GGGUGCCUGCAGGUCGCACCUAGGUUUUAGAGCUAGAAAUAGCAAGUUAAAAUAAGGCUAGU [sgRNA-Mut1 + pUC19-Mut1-0.8k amplicon] | – | 69.8 | –
6 | GGGUGUAGUAGCCGCCGUCGCGCGUUUUAGAGCUAGAAAUAGCAAGUUAAAAUAAGGCUAGU [sgRNA-GFP-Pos2 + pCDH-GFP-2k amplicon] | – | 99.4 | –
7 | GGGUGUAGUAGCCGCCGUCGCGCGUUUUAGAGCUAGAAAUAGCAAGUUAAAAUAAGGCUAGU [sgRNA-GFP-Pos2 + pCDH-GFP-5k amplicon] | – | 99.7 | 1.38 10^-8 M

From article PMC9108660
